Blank lines part the entries; values can stand above or below the binder they belong to.
Target: TrkA receptor (tropomyosin receptor kinase A) on NIH3T3-TrkA cells (UniProt P04629 33-796)
Sequence (P04629 33-796): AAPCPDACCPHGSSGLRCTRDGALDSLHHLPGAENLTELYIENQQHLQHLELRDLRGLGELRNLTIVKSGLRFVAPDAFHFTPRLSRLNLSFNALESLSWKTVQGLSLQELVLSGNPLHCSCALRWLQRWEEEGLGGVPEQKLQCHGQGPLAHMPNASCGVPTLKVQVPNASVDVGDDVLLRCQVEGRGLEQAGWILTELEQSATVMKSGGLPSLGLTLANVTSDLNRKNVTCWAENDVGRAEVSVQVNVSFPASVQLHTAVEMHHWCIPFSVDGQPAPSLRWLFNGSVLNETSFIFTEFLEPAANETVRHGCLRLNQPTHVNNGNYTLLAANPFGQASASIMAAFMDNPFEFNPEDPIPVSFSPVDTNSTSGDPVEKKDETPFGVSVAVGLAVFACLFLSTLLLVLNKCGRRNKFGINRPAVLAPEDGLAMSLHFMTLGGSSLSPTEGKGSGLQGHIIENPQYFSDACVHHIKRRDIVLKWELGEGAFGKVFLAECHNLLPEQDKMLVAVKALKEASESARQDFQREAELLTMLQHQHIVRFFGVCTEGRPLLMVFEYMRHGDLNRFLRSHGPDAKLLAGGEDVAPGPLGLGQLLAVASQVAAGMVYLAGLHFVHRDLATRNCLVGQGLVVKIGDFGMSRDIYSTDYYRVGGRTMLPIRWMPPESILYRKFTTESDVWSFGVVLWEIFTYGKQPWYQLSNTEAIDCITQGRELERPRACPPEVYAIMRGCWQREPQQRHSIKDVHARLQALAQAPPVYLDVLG

Kd: 2.79 nM
B1: NGF^R100W, mature form of the HSAN V mutant nerve growth factor, monobiotinylated, with AviTag (ligand)
chain: SSTHPVFHMGEFSVCDSVSVWVGDKTTATDIKGKEVTVLAEVNINNSVFRQYFFETKCRASNPVESGCRGIDSKHWNSYCTTTHTFVKALTTDEKQAAWWFIRIDTACVCVLSRKATRRGGGGLNDIFEAQKIEWHE
modifications: biotin on the AviTag (BirA co-expressed); conjugated to streptavidin-QD655 for the assays on cells

Kd: 2.27 nM
B2: wildtype nerve growth factor (wtNGF), monobiotinylated, with AviTag (ligand, mouse, UniProt P01139 122-241, looked up)
chain: SSTHPVFHMGEFSVCDSVSVWVGDKTTATDIKGKEVTVLAEVNINNSVFRQYFFETKCRASNPVESGCRGIDSKHWNSYCTTTHTFVKALTTDEKQAAWRFIRIDTACVCVLSRKATRRG
modifications: biotin on the AviTag (BirA co-expressed); conjugated to streptavidin-QD655 for the assays on cells
